Data as given in patent publication EP4659808A2 (Sanofi, dated 2025).
Substitutions are numbered along the chain they refer to.

T1: human beta-DG extracellular domain (human, UniProt Q14118 654-749, biotinylated in the Example 6 ELISA)
T1 construct: extracellular domain; Expression of the soluble human protein is not described; also called hBeta-DG; hbeta-DG
T1 sequence (looked up): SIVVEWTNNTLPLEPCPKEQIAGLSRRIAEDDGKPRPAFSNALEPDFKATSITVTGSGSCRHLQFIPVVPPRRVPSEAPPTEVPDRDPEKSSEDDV

T2: murine laminin G-like 5 domain (mLG-5) (mouse, UniProt Q60675 2932-3118, biotinylated (Avi tag) ; Biotinylated at the Avi tag (soluble biotinylated protein); the tag is left out of the letters.)
T2 construct: Soluble protein from Expi293F cells; also called murine LG-5
T2 sequence: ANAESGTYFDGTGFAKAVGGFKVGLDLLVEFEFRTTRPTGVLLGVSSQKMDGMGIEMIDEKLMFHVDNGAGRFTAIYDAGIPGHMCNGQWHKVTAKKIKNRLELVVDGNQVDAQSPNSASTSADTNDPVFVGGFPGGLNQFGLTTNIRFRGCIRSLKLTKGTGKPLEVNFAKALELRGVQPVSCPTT

T3: Fabrazyme (agalsidase beta, Genzyme) (UniProt P06280 32-429)
T3 construct: Negative control in the dot blots
T3 sequence (looked up): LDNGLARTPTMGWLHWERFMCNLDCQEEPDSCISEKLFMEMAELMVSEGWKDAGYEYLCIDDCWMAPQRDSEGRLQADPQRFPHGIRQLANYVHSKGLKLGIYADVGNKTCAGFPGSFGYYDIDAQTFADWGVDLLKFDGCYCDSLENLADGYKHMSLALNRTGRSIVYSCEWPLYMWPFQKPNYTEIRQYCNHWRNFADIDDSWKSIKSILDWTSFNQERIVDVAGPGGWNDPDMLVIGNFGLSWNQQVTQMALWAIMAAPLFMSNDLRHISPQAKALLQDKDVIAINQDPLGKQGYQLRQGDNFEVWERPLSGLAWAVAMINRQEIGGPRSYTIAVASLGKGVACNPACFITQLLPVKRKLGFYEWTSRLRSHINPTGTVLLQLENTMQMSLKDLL

T4: murine beta-DG extracellular domain (mbeta-DG ECD) (mouse, UniProt Q62165 652-746)
T4 construct: range 652-746; Made in E. coli; also called mbeta-DG-HPC4; m βDG; not shown: C-terminal HPC4 tag
T4 sequence (looked up): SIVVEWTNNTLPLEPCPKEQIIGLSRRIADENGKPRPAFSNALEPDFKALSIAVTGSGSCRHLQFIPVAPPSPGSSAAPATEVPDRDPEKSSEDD

B1: triAb 3407 (bispecific antibody, human IgG1, kappa)
light 1: EIVLTQSPDFLSVTPKEKVTLTCRASQSISNNLHWYQQKSDQSPKLLIKYASQSISGIPSRFSGSGSGTDFTLTINSVEAEDAATYFCQQSKSWPRTFGGGTKLEIKDKTHTEIVLTQSPDFLSVTPKEKVTLTCRASQSISNNLHWYQQKSDQSPKLLIKYASQSISGIPSRFSGSGSGTDFTLTINSVEAEDAATYFCQQSKSWPRTFGGGTKLEIKDKTHTRTVAAPSVFIFPPSDEQLKSGTASVVCLLNNFYPREAKVQWKVDNALQSGNSQESVTEQDSKDSTYSLSSTLTLSKADYEKHKVYACEVTHQGLSSPVTKSFNRGEC
heavy 1: EVQLVESGGGLVKPGGSLRLSCAASGFTFSSYTMSWVRQAPGKGLEWVASISSSGSNTYYPDSVKGRFTISRDNAKNNLYLQMNSLRAEDTALYYCARFDYGSSLDSWGQGTLLTVSSDKTHTEVQLVESGGGLVKPGGSLRLSCAASGFTFSSYTMSWVRQAPGKGLEWVASISSSGSNTYYPDSVKGRFTISRDNAKNNLYLQMNSLRAEDTALYYCARFDYGSSLDSWGQGTLLTVSSDKTHTASTKGPSVFPLAPSSKSTSGGTAALGCLVKDYFPEPVTVSWNSGALTSGVHTFPAVLQSSGSLSSVVTVPSSSLGTQTYICNVNHKPSNTKVDKKVEPKSCDKTHTCPPCPAPELLGGPSVFLFPPKPKDTLYITREPEVTCVVVDVSHEDPEVKFNWYVDGVEVHNAKTKPREEQYNNASRVVSVLTVLHQDWLNGKEYKCKVSNKALPAPIEKTISKAKGQPREPQVYTLPPCRDELTKNQVSLWCLVKGFYPSDIAVEWESNGQPENNYKTTPPVLDSDGSFFKKLTVDKSRWQQGNVFSCSVMHEALHNHYTQKSLSLSPG
heavy 2: QVQLVQSGAEVVKPGSSVKVSCEASGFTFTDSVITWVRQRPGQGLEWIGEIYPGSGNFYYNEKFQGRVTITADKSTSTAYMELSSLRSEDTAVYFCAMRRSSWGQGTLVTVSSASTKGPSVFPLAPSSKSTSGGTAALGCLVKDYFPEPVTVSWNSGALTSGVHTFPAVLQSSGSLSSVVTVPSSSLGTQTYICNVNHKPSNTKVDKKVEPKSCDKTHTCPPCPAPELLGGPSVFLFPPKPKDTLYITREPEVTCVVVDVSHEDPEVKFNWYVDGVEVHNAKTKPREEQYNNASRVVSVLTVLHQDWLNGKEYKCKVSNKALPAPIEKTISKAKGQPREPQVCTLPPSRDELTKNQVSLSCAVKGFYPSDIAVEWESNGQPENNYKTTPPVLDSDGSFFLVSKLTVDKSRWQQGNVFSCSVMHEALHNRFTQKSLSLSPG
light 2: DVVMTQTPLSLSVTPGQPASISCKSSQTIVHSNSKTYLEWYLQKPGQSPQLLIYKVSSRFSGVPDRFSGSGSGTDFTLKISRVEAEDVGVYYCFQGSHVPLTFGQGTKLEIKRTVAAPSVFIFPPSDEQLKSGTASVVCLLNNFYPREAKVQWKVDNALQSGNSQESVTEQDSKDSTYSLSSTLTLSKADYEKHKVYACEVTHQGLSSPVTKSFNRGEC
notes: Constant regions with knob-in-hole, NNAS, YTE and RF variants
B2: triAb 3429 (bispecific antibody, human IgG1, kappa)
light 1: B1 light 1 with K16G, N32Y, I58V, N76S, A83F, S142G
heavy 1: B1 heavy 1 with K136Q, S173T, S179D, A198S, N201T, N207S, L236T
heavy 2: B1 heavy 2
light 2: B1 light 2
B3: triAb 3423 (bispecific antibody, human IgG1, kappa)
light 1: B1 light 1 with T22S, N32Y, T74S
heavy 1: B1 heavy 1
heavy 2: B1 heavy 2
light 2: B1 light 2
B4: triAb 3437 (bispecific antibody, human IgG1, kappa)
light 1: B1 light 1 with S30G, T134S, N144Y, T186S
heavy 1: B1 heavy 1
heavy 2: B1 heavy 2
light 2: B1 light 2
B5: triAb 3439 (bispecific antibody, human IgG1, kappa)
light 1: B1 light 1 with K128G, N144Y, I170V, N188S, A195F
heavy 1: B1 heavy 1 with K13Q, S50T, S56D, A75S, N78T, N84S, L113T
heavy 2: B1 heavy 2
light 2: B1 light 2
B6: anti-beta-DG antibody phage display clone B04 (antibody, V domains shown)
VH: QVQLQQSGGGLVQPGGSLRLSCAASGFTFSSYAMSWVRQAPGKGLEWVSAISGSGGSTYYADSVKGRFTVSRDNSKNTLYLQMNSLRAEDTAVYYCARLGYCSSTSCYLSAFDIWGQGTMVTVSS
VL: EIVLTQSPSTLSASVGDRVTITCRASQSISSWLAWYQQKPGKAPKLLIYDASSLESGVPSRFSGSGSGTEFTLTISSLQPDDFATYYCQQYNSYPLTFGGGTKVEIK
notes: Phage display clone
B7: anti-laminin-2 antibody derived from hybridoma clone C3 (antibody, V domains shown)
VH: DVMLVESGGDLVKPGGSLKLSCAASGFTFSSYTMSWVRQTPEKRLEWVASISSGGGNTYYPDSVKGRFTISRDNAKNNLYLQMSSLRSEDTALYYCARFDYGSSLDSWGQGTTLTVSS
VL: DIVLTQSPATLSVTPGDSVSLSCRASQSISNNLHWYQQKSHESPRLLIKYASQSISGIPSRFSGSGSGTDFTLSINSVETEDFGMYFCQQSKNWPRTFGGGTKLEIK
notes: Hybridoma-derived monoclonal antibody detected with anti-mouse IgG; Chimeric human IgG1/kappa versions were also made; also called C03; anti-laminin-2(C3)
B8: anti-beta-DG antibody derived from hybridoma clone AS30 (antibody, V domains shown)
VH: QIQLQQSGPELVKPGASVKMSCEASGFTFTDSVITWVKQRPGQGLEWIGEIYPGSGNFYYNEKFKGKATLTADKSSNTAYMQLRSLTSEDSAVYFCAMRRSSWGQGTLVTVSA
VL: DVLMTQTPLSLPVSLGDQASISCRSSQTIVHSNSKTYLEWYLQKPGQSPKLLIYKVSNRFSGVPDRFSGSGSGTDFTLKISRVEAEDLGVYYCFQGSHVPLTFGAGTKLELK
notes: detected with anti-mouse IgG
B9: anti-beta-DG antibody derived from hybridoma clone AS19 (antibody, V domains shown)
VH: B8 VH with I2V, E23K, T35S, P41T, N57S, F58I, S102Y
VL: B8 VL with T28S, S34G, K35N
notes: Hybridoma-derived monoclonal antibody detected with anti-mouse IgG; also called parental anti-beta-DG (clone AS19)
B10: anti-beta-DG antibody derived from phage display clone B06 (antibody, V domains shown)
VH: QIQLVQSGAEVKKPGKSLKIACKGSGYSFSNYWIGWVRQMPGKGLEWMGIIYPGDSDTRYSPSFHGQVTISADKSISTAYLQWSSLKASDTAMYYCARGVIINGTTSGFDYWGQGTLVIVSS
VL: ETTLTQSPATLSVSPGERATLSCRASQSVSSNLAWYQQKPGQAPRLLMYGASTRATGIPARFSGSGSGTEFTLTISSLQSEDFAVYYCQHYNNLPLTFGGGTKVDLK
notes: Phage display clone; also called B6

How the values were obtained:
[1] = biological target: T1, human beta-DG extracellular domain; experiment: SPR (Biacore T100), antibody captured on Protein G chip, BDG in flow, 1:1 model
[2] = biological target: T1, human beta-DG extracellular domain; experiment: SPR (Biacore), mAb immobilized, hBeta-DG in flow
[3] = biological target: T2, murine laminin G-like 5 domain (mLG-5); experiment: SPR (Biacore), mAb immobilized, mLG-5 in flow
[4] = biological target: T3, Fabrazyme (agalsidase beta, Genzyme); experiment: dot blot
[5] = biological target: T4, murine beta-DG extracellular domain …; experiment: SPR (Biacore), mAb immobilized, mBeta-DG in flow

| Binder | Kd [1] | koff [1] | kon [1] | Kd [2] | further results |
| --- | --- | --- | --- | --- | --- |
| B1 | 2.08 nM | 0.00326 s⁻¹ | 1.57e+06 M⁻¹ s⁻¹ | – | – |
| B2 | 1.9 nM | 0.00404 s⁻¹ | 2.13e+06 M⁻¹ s⁻¹ | – | – |
| B3 | 1.6 nM | 0.00433 s⁻¹ | 2.7e+06 M⁻¹ s⁻¹ | – | – |
| B4 | 1.87 nM | 0.0045 s⁻¹ | 2.41e+06 M⁻¹ s⁻¹ | – | – |
| B5 | 1.3 nM | 0.004 s⁻¹ | 3.07e+06 M⁻¹ s⁻¹ | – | – |
| B6 | – | – | – | 2.57 nM | – |
| B7 | – | – | – | – | Kd [3]: 8.27 nM |
| B8 | – | – | – | 1.08 nM | binding result [4]: no binding; Kd [5]: 1.48 nM; koff [5]: 0.00113 s⁻¹; kon [5]: 773000 M⁻¹ s⁻¹; koff [2]: 0.000963 s⁻¹; kon [2]: 890000 M⁻¹ s⁻¹ |
| B9 | – | – | – | – | binding result [4]: no binding |
| B10 | – | – | – | 2.36 nM | Kd [5]: 162 nM; koff [5]: 0.00232 s⁻¹; kon [5]: 14300 M⁻¹ s⁻¹; koff [2]: 0.00216 s⁻¹; kon [2]: 968000 M⁻¹ s⁻¹ |
